Data published in US20130035289A1, “PHARMACEUTICAL COMPOSITION FOR TREATMENT OF THROMBOSIS-RELATED DISEASES COMPRISING A FRAGMENT OF PROLACTIN (PRL)-GROWTH HORMONE (GH)-PLACENTAL LACTOGEN (PL)-FAMILY PROTEIN” (UNIVERSITE DE LIEGE, priority 2010, published 2013).

Biological target: T1, PAI-1 (Homo sapiens, UniProt P05121)
T1 construct: gift of Pr; P. Declerck
Assay: Inhibition of PAI-1 anti-proteolytic activity, uPA/plasminogen chromogenic (colorimetric) assay
Assay type: biochemical
Settings: uPA, bovine plasminogen, PAI-1, absorbance 405 nm
Method: The main physiological function of PAI-1 is to inhibit uPA and tPA proteolytic activity. […] A chromogenic substrate for plasmin (Spectrozyme PL: 0.5 mM. American Diagnostica INC) in PBS was added to the mixture in 96-well microtitration plates and kept at room temperature. The release of free p-nitro-aniline from the chromogenic substrate was measured spectrophotometrically. The activity of plasmin was determined as the absorbance at 405 nm.

T1 sequence (P05121 24-402): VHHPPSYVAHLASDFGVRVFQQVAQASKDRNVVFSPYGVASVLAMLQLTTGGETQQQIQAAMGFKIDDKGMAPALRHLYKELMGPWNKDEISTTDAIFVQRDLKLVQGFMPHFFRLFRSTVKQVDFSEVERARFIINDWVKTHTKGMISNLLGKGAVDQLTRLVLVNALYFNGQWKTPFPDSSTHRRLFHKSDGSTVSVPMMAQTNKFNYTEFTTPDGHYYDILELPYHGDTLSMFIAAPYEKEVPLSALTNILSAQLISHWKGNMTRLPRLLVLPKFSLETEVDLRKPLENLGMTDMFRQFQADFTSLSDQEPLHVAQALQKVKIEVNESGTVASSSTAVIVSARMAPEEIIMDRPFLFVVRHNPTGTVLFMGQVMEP

inhibition of PAI-1 function to inhibit uPA and tPA proteolytic activity: did not show any inhibition
B1: 23K PRL: the full fragment (full-length) prolactin (protein)
chain: LPICPGGAARCQVTLRDLFDRAVVLSHYIHNLSSEMFSEFDKRYTHGRGFITKAINSCHTSSLATPEDKEQAQQMNQKDFLSLIVSILRSWNEPLYHLVTEVRGMQEAPEAILSKAVEIEEQTKRLLEGMELIVSQVHPETKENEIYPVWSGLPSLQMADEESRLSAYYNLLHCLRRDSHKIDNYLKLLKCRIIHNNNC
